Measurements from publication PMC5269676 (Scientific Reports, 2017).

T1: Kelch domain of Keap1
T1 construct: Cloned into pET-28a in frame with an N-terminal His tag and a TEV protease cleavage site; stored in 20 mM Tris pH 7.5, 5 mM DTT; source: E. coli BL21 (DE3), purified (Ni-NTA, His tag cut off, Ni-NTA flow-through, Superdex 75, if necessary Mono Q); not shown: His tag, N-terminal, cleaved
T1 chain: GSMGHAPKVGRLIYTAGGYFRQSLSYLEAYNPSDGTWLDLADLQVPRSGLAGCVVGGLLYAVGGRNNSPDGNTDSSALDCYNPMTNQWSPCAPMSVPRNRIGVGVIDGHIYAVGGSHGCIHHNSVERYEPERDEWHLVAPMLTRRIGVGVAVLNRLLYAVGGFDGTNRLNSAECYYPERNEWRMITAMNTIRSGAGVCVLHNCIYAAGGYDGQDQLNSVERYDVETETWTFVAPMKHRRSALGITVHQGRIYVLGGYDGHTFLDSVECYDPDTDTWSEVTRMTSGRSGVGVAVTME


What was measured:
Keap1 [1] = molecular target: Keap1 (Homo sapiens)
Kelch domain of Keap1 = molecular target: T1, Kelch domain of Keap1; assay: SPR; Biacore competition assay; concentration of LS146-scFv varied, percent inhibition fitted to a variable slope model; what was immobilised is not told; conditions: both partners purified
Keap1 [2] = molecular target: T2, Keap1 (Homo sapiens); assay: not stated; potency of LS146-scFv against its Fab form (Supplementary Fig. S6)
T2 construct: Keap1, BTB-Kelch substrate adaptor protein; the crystallised construct is in PDB 5F72; source: recombinant, purified (procedures in Supplementary Methods)

Binder | binding result (Keap1 [1]) | also measured
G55 (antibody, V domains shown) VH: EVQLVESGGGLIRPGGSLRLSCKGSGFIFENFGFGWVRQGPGKGLEWVSGTNWNGGDSRYGDSVKGRFTISRDNSNNFVYLQMNSLRPEDTAIYYCARGTDYTIDETGERYQGSGTFWYFDVWGRGTLVTVSS VL: EIVLTQSPDTLSLSPGERATLSCRASQSVHSRYFAWYQHKPGQPPRLLIYGGSTRATGIPNRFSAGGSGTQFTLTVNRLEAEDFAVYYCQQYGASPYTFGQGTKVEIR | binds | –
G56 (antibody, V domains shown) VH: EVQLVESGGGLIRPGGSLRLSCKGSGFIFENFGFGWVRQGPGKGLEWVSGTNWNGGDSRYGDSVKGRFTISRDNSNNFVYLQMNSLRPEDTAIYYCARGTDYTIDETGERAQGSGTFWYFDVWGRGTLVTVSS VL: EIVLTQSPATLSVSPGERATLSCRASQNVHPRYFAWYQQKRGQSPRLLIHSGSTRAAGIADRFSGGGSGMHFTLTITRVEPEDFAVYFCQQYGGSPYTFGQGTRVELR | binds | –
LS146-scFv (scFv, VH of LS146-scFv; (Gly4Ser)4 linker; VL of LS146-scFv; two residues between VL and the TEV site; also called scFv-LS146; source: CHO-S XE cells, transiently transfected, purified (HisTrap excel, His tag removed, HisTrap flow-through, Superdex 75); not shown: His10 (after a TEV protease cleavage site), C-terminal, cleaved) scFv: EVQLVESGGGLVQPGGSLRLSCAASGFAISASSIHWVRQAPGKCLEWVASIDPETGETLYAKSVAGRFTISADTSKNTAYLQMNSLRAEDTAVYYCARAYAGDGVYYADVWGQGTLVTVSSGGGGSGGGGSGGGGSGGGGSDIQMTQSPSSLSASVGDRVTITCRASQSVSSAVAWYQQKPGKAPKLLIYSASSLYSGVPSRFSGSRSGTDFTLTISSLQPEDFATYYCQQSYSFPSTFGCGTKVEIKRT | – | IC50 (Kelch domain of Keap1): 79 nM
G54 (antibody, V domains shown) VH: EVQLVESGGGLVQPGGSLRLSCAASGFAISASSIHWVRQAPGKGLEWVASISPETGETYYADSVAGRFTISADTSKNTAYLQMNSLRAEDTAVYYCARQGYAARSGAGFDYWGQGTLVTVSS VL: DIQMTQSPSSLSASVGDRVTITCRASQSVSSAVAWYQQKPGKAPKLLIYSASSLYSGVPSRFSGSRSGTDFTLTISSLQPEDFATYYCQQSYSFPSTFGQGTKVEIK | binds | –
LS146-scFv (scFv, V domains shown, VH of LS146; (Gly4Ser)4 linker, written out; VL of LS146; The His10 tag is cleavable by TEV protease; also called LS146 formatted as a single chain Fv; crystal LS146-scFv; source: CHO-S XE cells; purification in Supplementary Methods) VH: EVQLVESGGGLVQPGGSLRLSCAASGFAISASSIHWVRQAPGKCLEWVASIDPETGETLYAKSVAGRFTISADTSKNTAYLQMNSLRAEDTAVYYCARAYAGDGVYYADVWGQGTLVTVSS VL: DIQMTQSPSSLSASVGDRVTITCRASQSVSSAVAWYQQKPGKAPKLLIYSASSLYSGVPSRFSGSRSGTDFTLTISSLQPEDFATYYCQQSYSFPSTFGCGTKVEIK | – | fold lower potency than the Fab form (LS146 Fab) (Keap1 [2]): 3 fold
